Target: T1, IL-1R1 Fc fusion protein
T1 construct: Used as immunogen and as ELISA coating antigen at 1 ug/ml; also called IL-1R1 immunogen
T1 chain: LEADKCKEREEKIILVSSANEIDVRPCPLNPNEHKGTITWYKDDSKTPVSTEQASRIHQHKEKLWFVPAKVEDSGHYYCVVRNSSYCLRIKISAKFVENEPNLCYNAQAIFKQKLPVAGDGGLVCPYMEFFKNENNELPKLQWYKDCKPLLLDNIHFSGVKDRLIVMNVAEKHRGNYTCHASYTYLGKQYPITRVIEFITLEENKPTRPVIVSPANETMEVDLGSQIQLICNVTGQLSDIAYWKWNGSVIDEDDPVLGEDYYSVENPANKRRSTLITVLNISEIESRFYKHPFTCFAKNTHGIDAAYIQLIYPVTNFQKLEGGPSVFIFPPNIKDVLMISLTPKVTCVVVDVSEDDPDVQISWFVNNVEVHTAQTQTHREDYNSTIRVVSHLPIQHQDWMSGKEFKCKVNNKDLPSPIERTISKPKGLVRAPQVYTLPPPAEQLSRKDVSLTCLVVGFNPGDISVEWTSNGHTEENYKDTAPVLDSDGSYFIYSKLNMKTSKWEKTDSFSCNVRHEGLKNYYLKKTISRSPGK
Experiment: ELISA of hybridoma supernatants on coated IL-1R1, with APO-A1 as negative control
Description: The day prior to screening, a Maxi Sorp plate was coated by adding 100 μl/well of 50 mM sodium carbonate coating buffer (pH 9.5) containing the IL-1R1 at 1 μg/ml. A separate coating solution was prepared by diluting APO-A1 in the same coating buffer at 1 μg/ml. […] This plate was incubated overnight at 4° C. in static conditions.
Eleven days after fusion, protoclones were screened by ELISA. 20× Maxi Sorp 96 well plates were coated as described herein using APO-A1 at 1 μg/ml as the negative control for specificity. The coating solution was removed and the plates were blocked as described herein. Samples were prepared by removing 160 μl of supernatant from each well of the ten fusion plates, limiting dilution plates, or 24-well plates and transferring to fresh 96 well culture plates containing 50 μl 1×PBS. After 2 hours of blocking, the blocking solution was removed, and the plates were washed 3× with PBS-T. The samples from each dilution plate were loaded onto the ELISA plates at 100 μl/well by adding 1 row from each dilution plate per 2 rows on the ELISA plates to account for specificity of the coating antigens. Two wells per ELISA were incubated with 100 μl 1×PBS as a negative control. These samples were incubated at 150 rpm for 2 hours at room temperature.

- binding result: binds
B1: Anti-IL-1R1 monoclonal antibody produced from clone F237 5D1-1A8-2A5 (antibody, V domains shown)
VH: QIQLVQSGPELRKPGETVRISCKASGYPFTTAGLQWVQKMSGKGLKWIGWMNTQSEVPKYAEEFKGRIAFSLETAASTAYLQINNLKTEDTATYFCAKSVYFNWRYFDVWGAGTTVTVSS
VL: DIVMTQSPATLSVTPGDRVSLSCRASQSISDYLSWYQQRSHESPRLIIKYASQSISGIPSRFSGSGSGSDFTLSINSVEPEDVGVYYCQHGHSFPLTFGSGTKLELKR
notes: Mouse hybridoma antibody tested as culture supernatant; also called first antibody (to IL-1R1)

— patent US20220041739A1 (UNIVERSITY OF ULSTER, published 2022)
